Results reported in patent US5126322A, “Pancreatic secretory tryspin inhibitor and variants thereof produced by a recombinant host therefore and pharmaceutical use thereof” (Bayer Aktiengesellschaft, priority 1987, dated 1992).

Experiments:
Type in all cases: biochemical
α-Chymotrypsin (bovine) = molecular target: T1, α-Chymotrypsin (bovine) (Bos taurus, UniProt P00766); assay: Enzyme inhibition assay, α-chymotrypsin, release of p-nitroaniline from Suc-Ala-Ala-Pro-Phe-pNA; details: 50 ng enzyme/assay
T1 construct: purchased E. Merck, Darmstadt
Procedure: Bovine α-chymotrypsin (CHT) was obtained from E. Merck, Darmstadt.
(§1) The substrates: MeOSuc-Ala-Ala-Pro-Val-pNA (HLE), Ac-Ala-Ala-Pro-Ala-pNA and Suc-Ala-Ala-Ala-pNA (PPE and Suc-Ala-Ala-Pro-Phe-pNA (CHT) were obtained from Bachem, Bubendorf/Switzerland.
(§2) Culture filtrates were treated as follows: 10 μl TWEEN 80 solution (0.5%) and 50 μl perchloric acid (70%) were added to 1 ml of culture filtrate. After 20 min, these samples were centrifuged, and the clear supernatants were neutralized by the addition of 225 μl saturated solution of tris base. Aliquots of these solutions were taken to determine inhibitory activities.
(§3) Generally, the samples were diluted with the appropriate buffer volume, and the enzyme was added. After the preincubation time, substrate was added (substrates are dissolved in DMSO in a concentration of 0.1M and diluted with buffer to give the concentration of the stock solution). The release of p-nitroaniline from the substrates was measured at 405 nm either continuously or after quenching the reaction by adding acetic acid. 100%- values were determined by running samples where inhibitors were omitted. Percentage inhibition was calculated using the formula: [formula] […]

[1] = molecular target: T2, Granulocytic Elastase (human) (Homo sapiens, UniProt P08246); assay: Enzyme inhibition assay, leukocyte (granulocytic) elastase, release of p-nitroaniline from MeOSuc-Ala-Ala-Pro-Val-pNA; details: 120 ng enzyme/assay
T2 construct: purchased Elastin Products Company, Inc
T2 sequence (P08246 30-267): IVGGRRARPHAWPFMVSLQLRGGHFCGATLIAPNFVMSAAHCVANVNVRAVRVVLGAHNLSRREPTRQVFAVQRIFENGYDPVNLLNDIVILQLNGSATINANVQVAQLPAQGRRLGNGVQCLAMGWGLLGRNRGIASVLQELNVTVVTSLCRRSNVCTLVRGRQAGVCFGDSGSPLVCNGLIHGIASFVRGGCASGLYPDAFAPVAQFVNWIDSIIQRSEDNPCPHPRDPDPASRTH
Procedure: (§4) Human leukocyte elastase (HLE) and porcine pancreas elastase (PPE) were obtained from Elastin Products Company, Inc. P.O. Box 147, Pacific, Miss. 63069/USA.
as §1, §2, §3

[2] = molecular target: T3, Pancreatic Elastase (porcine) (Sus scrofa, UniProt P00772); assay: Enzyme inhibition assay, pancreatic elastase, release of p-nitroaniline from Ac-Ala-Ala-Pro-Ala-pNA; details: 500 ng enzyme/assay
T3 construct: purchased Elastin Products Company, Inc
T3 sequence (P00772 27-266): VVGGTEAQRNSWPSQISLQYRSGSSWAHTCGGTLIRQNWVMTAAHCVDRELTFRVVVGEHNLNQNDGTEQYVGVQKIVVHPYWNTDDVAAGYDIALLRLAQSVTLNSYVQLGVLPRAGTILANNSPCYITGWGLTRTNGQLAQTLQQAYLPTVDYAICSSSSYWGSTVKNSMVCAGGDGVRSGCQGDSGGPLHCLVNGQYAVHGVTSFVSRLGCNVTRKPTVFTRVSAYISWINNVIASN
Procedure: as §4, §1, §2, §3

Row | amount of inhibitor giving 50% inhibition, α-Chymotrypsin (bovine) (α-Chymotrypsin (bovine)) [ng] | amount of inhibitor giving 50% inhibition, Granulocytic Elastase (human) [1] [ng] | amount of inhibitor giving 50% inhibition, Pancreatic Elastase (porcine) [2] [ng] | Substance
1 | 8 | 16 | 73 | Met^-1 -Leu^18 -Glu^19 -Arg^21 -Ala^32 -PSTI (DSLGREAKCYNELNGCTLEYRPVCGTDGNTYANECVLCFENRKRQTSILIQKSGPC; N-terminal Met; UniProt P00995 24-79, looked up, variant K18L I19E D21R P32A) [Met-PSTI-4A]
2 | 6 | 15 | 68 | Asn^-13 -Ala^-12 -Glu^-11 -Thr^-10 -Ala^-9 -His^-8 -Lys^-7 -Ser^-6 -Asn^-5 -Glu^-4 -Val^-3 -Thr^-2 -Met^-1 -Leu^18 -Glu^19 -Arg^21 -Ala^32 -PSTI ({Asn-Ala-Glu-Thr-Ala-H2N}-KSNEVTMDSLGREAKCYNELNGCTLEYRPVCGTDGNTYANECVLCFENRKRQTSILIQKSGPC; ends and bridges not checked; UniProt P00995 24-79, looked up, variant K18L I19E D21R P32A) [PSTI-4A [Minifusion]]
3 | 100 | 18 | 1200 | Leu^18 -Ala^32 -PSTI (DSLGREAKCYNELNGCTLIYDPVCGTDGNTYANECVLCFENRKRQTSILIQKSGPC; UniProt P00995 24-79, looked up, variant K18L P32A) [PSTI-1A, PSTI variant from cyanogen bromide cleavage of the PSTI-1A minifusion protein]
4 | 7 | 17 | 75 | Leu^18 -Glu^19 -Arg^21 -Ala^32 -PSTI (DSLGREAKCYNELNGCTLEYRPVCGTDGNTYANECVLCFENRKRQTSILIQKSGPC; UniProt P00995 24-79, looked up, variant K18L I19E D21R P32A) [PSTI-4A, PSTI variant obtained from the minifusion protein by BrCN-cleavage]
5 | 100 | 15 | 70 | Val^18 -Glu^19 -Arg^21 -PSTI (DSLGREAKCYNELNGCTVEYRPVCGTDGNTYPNECVLCFENRKRQTSILIQKSGPC; UniProt P00995 24-79, looked up, variant K18V I19E D21R) [PSTI-5P]
6 | 7 | > 5000 |  | Tyr^18 -Glu^19 -Arg^21 -PSTI (DSLGREAKCYNELNGCTYEYRPVCGTDGNTYPNECVLCFENRKRQTSILIQKSGPC; UniProt P00995 24-79, looked up, variant K18Y I19E D21R) [PSTI-3P]
